This is an account of results in patent publication US10800847.

In assay [1] the target is HLA-A*2902 (A29) single antigen on beads (human). Briefly: Luminex iBeads (#6), IVIg 1:4.
Assay [2] addresses HLA-A*3001 (A30) single antigen on beads (human). Briefly: Luminex iBeads (#6), IVIg 1:4.
For assay [3], the target named is HLA-A*3002 (A30) single antigen on beads (human). The assay is described as follows: Luminex iBeads (#6), IVIg 1:4.
The target in assay [4] is HLA-A*3101 (A31) single antigen on beads (human). The assay is described as follows: Luminex iBeads (#6), IVIg 1:4.
The target in assay [5] is HLA-A*3201 (A32) single antigen on beads (human). The assay is described as follows: Luminex iBeads (#6), IVIg 1:4.
For assay [6], the target named is HLA-A*3301 (A33) single antigen on beads (human). Briefly: Luminex iBeads (#6), IVIg 1:4.
Assay [7] concerns the target HLA-A*3303 (A33) single antigen on beads (human). The assay is described as follows: Luminex iBeads (#6), IVIg 1:4.
The target of assay [8] is HLA-A*3402 (A34) single antigen on beads (human). Briefly: Luminex iBeads (#6), IVIg 1:4.
Assay [9] deals with HLA-A*3601 (A36) single antigen on beads (human). Briefly: Luminex iBeads (#6), IVIg 1:4.
In assay [10] the target is HLA-A*4301 (A43) single antigen on beads (human). The assay is described as follows: Luminex iBeads (#6), IVIg 1:4.
In assay [11] the target is HLA-A*6601 (A66) single antigen on beads (human). Briefly: Luminex iBeads (#6), IVIg 1:4.
Assay [12] concerns the target HLA-A*6602 (A66) single antigen on beads (human). Briefly: Luminex iBeads (#6), IVIg 1:4.
The target of assay [13] is HLA-A*6801 (A68) single antigen on beads (human). Briefly: Luminex iBeads (#6), IVIg 1:4.
In assay [14] the target is HLA-Cw*0102 (Cw1) (human). Briefly: Luminex, iBeads (#6), 1:8.
Assay [15] addresses HLA-Cw*0801 (Cw8) (human). The assay is described as follows: Luminex, regular beads (#7), 1:8.
The target in assay [16] is HLA-A*3002 (A30) single antigen on beads (human). The assay is described as follows: Luminex, iBead vs regular bead, IVIg 1:8.
For assay [17], the target named is HLA-A*3201 (A32) single antigen on beads (human). The assay is described as follows: Luminex, iBead vs regular bead, IVIg 1:8.
The next assay addresses HLA-B*1501 (B62) (human). The assay is described as follows: Luminex regular beads (#7), IVIg diluted 1:8.
Assay [18] deals with HLA-A*4301 (A43) single antigen on beads (human). The assay is described as follows: Luminex single-antigen regular beads (#7), IVIg 1:8.
For assay [19], the target named is HLA-A*7401 (A74) single antigen on Luminex beads (human). Briefly: Luminex single antigen bead assay, iBeads (#6), IVIg 1:8.
For assay [20], the target named is HLA-A*6802 (A68) single antigen on Luminex beads (human). Briefly: Luminex single antigen bead assay, regular beads (#7), IVIg 1:8.
Assay [21] shares this target. Briefly: Luminex single antigen bead assay, iBeads vs regular beads, IVIg 1:8.
Assay [22] has as its target HLA-B*2705 (B27) single antigen on Luminex beads (human). Briefly: Luminex single antigen, iBead vs regular bead, IVIg 1:8.
Assay [23] deals with HLA-B*2708 (B27) single antigen on Luminex beads (human). The assay is described as above.
The target of assay [24] is HLA-B*3501 (B35) single antigen on Luminex beads (human). The description is as above.
Assay [25] has as its target HLA-B*3701 (B37) single antigen on Luminex beads (human). The assay is described as above.
Assay [26] has as its target HLA-B*3801 (B38) single antigen on Luminex beads (human). The assay is described as above.
Assay [27] concerns the target HLA-B*3901 (B39) single antigen on Luminex beads (human). Described as above.
The target in assay [28] is HLA-B*4001 (B60) single antigen on Luminex beads (human). The assay is described as above.
In assay [29] the target is HLA-B*4002 (B61) single antigen on Luminex beads (human). The assay is described as above.
The target of assay [30] is HLA-B*4006 (B61) single antigen on Luminex beads (human). The assay is described as above.
In assay [31] the target is HLA-B*4101 (B41) single antigen on Luminex beads (human). Described as above.
The target in assay [32] is HLA-B*4201 (B42) single antigen on Luminex beads (human). The description is as above.
Assay [33] has as its target HLA-B*4402 (B44) single antigen on Luminex beads (human). The description is as above.
Assay [34] concerns the target HLA-B*4403 (B44) single antigen on Luminex beads (human). Described as above.
For assay [35], the target named is HLA-B*4501 (B45) single antigen on Luminex beads (human). The description is as above.
Assay [36] concerns the target HLA-B*4701 (B47) single antigen on Luminex beads (human). Described as above.
Assay [37] addresses HLA-Cw*0202 (Cw2) (human). The assay is described as follows: Luminex, iBeads (#6), 1:8.
Assay [38] has as its target HLA-Cw*0401 (Cw4) (human). The assay is described as follows: Luminex, iBeads (#6), 1:8.
In assay [39] the target is HLA-A*4301 (A43) single antigen on beads (human). The assay is described as follows: Luminex, iBead vs regular bead, IVIg 1:8.
Assay [40] addresses HLA-A*7401 (A74) single antigen on Luminex beads (human). The assay is described as follows: Luminex single antigen bead assay, iBeads vs regular beads, IVIg 1:8.
In assay [41] the target is HLA-A*6602 (A66) single antigen on beads (human). The assay is described as follows: Luminex, iBead vs regular bead, IVIg 1:8.
A further assay addresses HLA-B*1516 (B63) (human). Briefly: iBead MFI against regular-bead MFI, IVIg diluted 1:8.

Consider “IVIg Sandoglobulin (Novartis, Basel, Switzerland) (antibody)”, for which the MFI worked out at 932 MFI in [1]; 540 MFI in assay [2]; 526 MFI in assay [3]; 295 MFI in [4]; 769 MFI in assay [5]; 684 MFI in assay [6]. Besides, the MFI in [7] came to 439 MFI; in assay [8] it was 177 MFI; in [9], 636 MFI; in assay [10], 949 MFI; in [11], 783 MFI; in assay [12], 768 MFI. The same substance showed an MFI in assay [13] of 307 MFI.
Take IVIg Gamunex-C Lot NKLK1 (antibody): the MFI in assay [14] was found to be 1060 MFI; in [15], 4540 MFI; with HLA-B*1501 (B62) (human) it was 15 MFI; in [18], 1170 MFI; in [19], 515 MFI; in assay [20], 1330 MFI. Moreover, the Difference % (iBead MFI vs regular bead MFI) worked out at 151% in [16] and 116% in assay [17]. Further, in [21], the Difference % (iBead MFI against regular bead MFI) worked out at 46%.
Regarding “Octagam (IVIg, Octapharma, Lachen, Switzerland) (antibody)”, the Difference % (iBead against regular bead MFI) in assay [22] was -100%; in assay [23], -100%; in assay [24] it was -100%; in [25], -100%; in [26] it was -100%; in [27] it was 0%. Further, the Difference % (iBead against regular bead MFI) was -100% in [28]; -100% in assay [29]; -97% in assay [30]; -100% in assay [31]; -100% in [32]; -82% in [33]. The Difference % (iBead against regular bead MFI) in assay [34] was -39%; in assay [35], -68%; in assay [36] it was -57%.
Turning to “IVIg Octagam (Octapharma, Lachen, Switzerland) (antibody)”, the MFI in [14] came out at 1780 MFI; in assay [37], 1840 MFI; in assay [38] it was 2010 MFI; in assay [15], 4420 MFI; in [20], 1750 MFI. The Difference % (iBead MFI vs regular bead MFI) in [16] is -31%; in [17], -30%; in assay [39] it was -11%. In [40], the Difference % (iBead MFI against regular bead MFI) is -59%.
As to “IVIg GamaSTAN S/D (Talecris Biotherapeutics, USA) (antibody)”, the values for the MFI in assay [37] and in [18] were 8100 MFI and 1910 MFI, respectively. Besides, the Difference % (iBead MFI vs regular bead MFI) in assay [41] was 83%. Moreover, the Difference % (iBead vs regular bead) with HLA-B*1516 (B63) (human) is -7%.
As to IVIg Gamunex-C Lot NKLG1 (antibody), the MFI in [38] amounted to 3730 MFI; in the assay with HLA-B*1501 (B62) (human) it was 0 MFI; in [19], 3900 MFI. In addition, the figures for the Difference % (iBead MFI vs regular bead MFI) in assay [39] and in assay [41] were 186% and 372%, respectively. Further, the Difference % (iBead vs regular bead) with HLA-B*1516 (B63) (human) is -36%. Moreover, the Difference % (iBead MFI against regular bead MFI) in assay [21] was 228%; in [40], 486%.
